For data set [1], the system named is Sis7dWT (native, methylated) (Sulfolobus islandicus E234). Briefly: BLI. The note with it: BLI: 20 mM Tris-HCl pH 6.8, 100 mM KCl, 1 mM EDTA, 0.05% Tween-20, 30°C; pull-down: 10 mM HEPES pH 7.6, 100 mM KCl, 2.5 mM MgCl2, 0.1 mg/mL BSA, room ….
Data set [2] concerns Sis7dΔaKMT (native, unmodified) (Sulfolobus islandicus ΔaKMT). In words: BLI. The note with it: BLI: 20 mM Tris-HCl pH 6.8, 100 mM KCl, 1 mM EDTA, 0.05% Tween-20, 30°C; pull-down: 10 mM HEPES pH 7.6, 100 mM KCl, 2.5 mM MgCl2, 0.1 mg/mL BSA, room ….
The test system of another data set is rSis7d. In words: BLI. The note with it: BLI: 20 mM Tris-HCl pH 6.8, 100 mM KCl, 1 mM EDTA, 0.05% Tween-20, 30°C; pull-down: 10 mM HEPES pH 7.6, 100 mM KCl, 2.5 mM MgCl2, 0.1 mg/mL BSA, room ….
The target in the next data set is T1, Cren7 K48Q K48Q (UniProt C3NHU3).
T1 sequence: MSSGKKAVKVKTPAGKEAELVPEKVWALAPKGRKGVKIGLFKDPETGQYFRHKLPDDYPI
Briefly: DNA-cellulose pull-down (bridging). The note with it: BLI: 20 mM Tris-HCl pH 6.8, 100 mM KCl, 1 mM EDTA, 0.05% Tween-20, 30°C; pull-down: 10 mM HEPES pH 7.6, 100 mM KCl, 2.5 mM MgCl2, 0.1 mg/mL BSA, room ….

The target of another data set is T2, Cren7 K24Q K24Q (UniProt C3NHU3).
T2 sequence: T1 sequence with K24Q, Q48K
In words: DNA-cellulose pull-down (bridging). The note with it: BLI: 20 mM Tris-HCl pH 6.8, 100 mM KCl, 1 mM EDTA, 0.05% Tween-20, 30°C; pull-down: 10 mM HEPES pH 7.6, 100 mM KCl, 2.5 mM MgCl2, 0.1 mg/mL BSA, room ….

In the next data set the target is T3, Cren7 K31Q K31Q (UniProt C3NHU3).
T3 sequence: T1 sequence with K31Q, Q48K
Briefly: DNA-cellulose pull-down (bridging). The following applies: BLI: 20 mM Tris-HCl pH 6.8, 100 mM KCl, 1 mM EDTA, 0.05% Tween-20, 30°C; pull-down: 10 mM HEPES pH 7.6, 100 mM KCl, 2.5 mM MgCl2, 0.1 mg/mL BSA, room ….

For data set [3], the target named is T4, Cren7WT (native, methylated) (Sulfolobus islandicus E234) (UniProt C3NHU3).
T4 sequence: T1 sequence with Q48K
In words: DNA-cellulose pull-down (bridging). The following applies: BLI: 20 mM Tris-HCl pH 6.8, 100 mM KCl, 1 mM EDTA, 0.05% Tween-20, 30°C; pull-down: 10 mM HEPES pH 7.6, 100 mM KCl, 2.5 mM MgCl2, 0.1 mg/mL BSA, room ….

Data set [4] concerns the target T5, rCren7 (UniProt C3NHU3 1-60).
T5 sequence: T1 sequence with Q48K
In words: DNA-cellulose pull-down (bridging). The following applies: dsDNA-cellulose, 2.5 mM MgCl2, BLI: 20 mM Tris-HCl pH 6.8, 100 mM KCl, 1 mM EDTA, 0.05% Tween-20, 30°C, pull-down: 10 mM HEPES pH 7.6, 100 mM KCl, 2.5 mM MgCl2, 0.1 mg/mL BSA, room ….

The target of another data set is T6, Cren7 K42Q K42Q (UniProt C3NHU3).
T6 sequence: T1 sequence with K42Q, Q48K
In words: DNA-cellulose pull-down (bridging). The note with it: BLI: 20 mM Tris-HCl pH 6.8, 100 mM KCl, 1 mM EDTA, 0.05% Tween-20, 30°C; pull-down: 10 mM HEPES pH 7.6, 100 mM KCl, 2.5 mM MgCl2, 0.1 mg/mL BSA, room ….

A further data set concerns the target T7, Cren7 K31Q (UniProt C3NHU3 1-60, K31Q).
T7 sequence: T1 sequence with K31Q, Q48K
In words: BLI; BLI: 20 mM Tris-HCl pH 6.8, 100 mM KCl, 1 mM EDTA, 0.05% Tween-20, 30°C; pull-down: 10 mM HEPES pH 7.6, 100 mM KCl, 2.5 mM MgCl2, 0.1 mg/mL BSA, room temperature. The note with it: protein: recombinant; label: 5' biotin on strand 1; blunt. In general terms: In BLI a coated tip is dipped into the sample, and binding shifts an interference pattern.

A further data set addresses T8, Cren7 K42Q (UniProt C3NHU3 1-60, K42Q).
T8 sequence: T1 sequence with K42Q, Q48K
The description is as above. The note with it: protein: recombinant; label: 5' biotin on strand 1; blunt.

The next data set has as its target T9, Cren7 K48Q (UniProt C3NHU3 1-60, K48Q).
T9 sequence: T1 sequence
Described as above. The note with it: protein: recombinant; label: 5' biotin on strand 1; blunt.

Data set [5] has as its target T5, rCren7. The data set is described as above. The note with it: protein: recombinant; label: 5' biotin on strand 1; blunt.
The target in another data set is T10, Cren7 K24Q (UniProt C3NHU3 1-60, K24Q).
T10 sequence: T1 sequence with K24Q, Q48K
The description is as above. The following applies: protein: recombinant; label: 5' biotin on strand 1; blunt.

Where a chain is given by its changes, count along the chain named.

A word on the Kd: it is the constant that tells how readily two partners part at equilibrium. For “TAGAGCCCTAGTCTTCCAAACTAGCTACGC (double strand) [D30]”, the dissociation constant Kd in data set [1] was found to be 1640 nM; in data set [2], 1370 nM; in the data set with rSis7d it was 1040 nM.

Take pBR322: the binding signal with Cren7 K48Q K48Q, with Cren7 K24Q K24Q, with Cren7 K31Q K31Q and with Cren7 K42Q K42Q was < 10 % of rCren7 throughout. This molecule gave a binding signal (% (barely detected)) in data set [3] of under 10. For the same molecule, the binding signal (% input pulled down) was 18 in the data set with rCren7 [4] (5 uM protein) and 35 in the data set with rCren7 [4] (10 uM protein).

B1: D30 (dsDNA)
DNA 1: TAGAGCCCTAGTCTTCCAAACTAGCTACGC
DNA 2: GCGTAGCTAGTTTGGAAGACTAGGGCTCTA
Regarding B1, the Kd in the data set with Cren7 K31Q turned out to be 103 nM; with Cren7 K42Q, 1120 nM; with Cren7 K48Q, 199 nM; in the data set with rCren7 [5], 125 nM; in the data set with Cren7 K24Q, 217 nM.

(Values after paper PMC8927968, “Lysine Methylation Modulates the Interaction of Archaeal Chromatin Protein Cren7 With DNA”.)
